The values that follow come from the supplement of paper PMC10567573.

± gives the standard deviation.

This series can be described thus: protein stability index of a GFP-peptide fusion (GPS, HEK-293T) (PSI 1-6); higher = more stable.
[1] abbreviates: treatment: DMSO, c terminus: a fixed tail appended.
[2] abbreviates: treatment: MLN4924 1 uM, 8 h, c terminus: a fixed tail appended.
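Note: 24-mer peptide tiles fused after GFP, lentivirally expressed, FACS-sorted into six equal bins by GFP/DsRed ratio, decoded by Illumina sequencing, PSI is the read-weighted mean bin number.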

For AAEEPGVRGLLASLFAFKSFRENW [C2CD2L], the protein stability index by setting is: under setting [1], 2.44 ± 0.19; under setting [2], 2.65 ± 0.032.
Consider AALIYFAISITAIAKYSDGASKAA [CMTM3], for which the protein stability index under setting [1] turned out to be 3.49 ± 0.37 and the protein stability index under setting [2] is 3.43 ± 0.62.
Regarding AANHWVLPAAEFHGLWDSLVYDVE [TRIP13], the protein stability index is, setting by setting: under setting [1], 2.62 ± 0.31; under setting [2], 2.66 ± 0.22.
In the same order, the values of AAQFTDFLIPMLEMVPEKRASAGE [SRPK2] are 3.6 ± 0.29 and 3.97 ± 0.29.
As for AASLVTMGIVNLNIHMNFTHICRS [SLC2A12], the protein stability index was 3.46 ± 0.27 under setting [1] and 3.16 ± 0.21 under setting [2].
Turning to AAVPDEIPPLEGDEDASRMEEVD [HSP90AB1], the protein stability index is, setting by setting: (treatment: DMSO, c terminus: native) 5.62 ± 0.27; (treatment: MLN4924 1 uM, 8 h, c terminus: native) 5.68 ± 0.21.
On to AAWLTLWVFGTSFLPFLLCAVLLS [FADS1], for which the protein stability index under setting [1] amounted to 2.97 ± 0.53 and the protein stability index under setting [2] worked out at 3.15 ± 0.69.
As to ACDNGLNVRGGKPDDITVLLSIVA [PPTC7], the protein stability index by setting is: under setting [1], 2.32 ± 0.59; under setting [2], 2.16 ± 0.45.
Turning to ADFGRLVNLQHLDLLNNKLVTLPV [LRRC59], the protein stability index reads like this: under setting [1], 2.3 ± 0.2; under setting [2], 2.37 ± 0.21.
In the same order, the values of ADWFMSLGVGLLTFASLETVGIYF [TMEM40] are 3.37 ± 0.22 and 3.04 ± 0.52.
With AEDAVYGRDGYDYDGYRLRVEFPR [SRSF1], the protein stability index under setting [1] came to 3.37 ± 0.2 and the protein stability index under setting [2] worked out at 3.44 ± 0.37.
The corresponding values for AEIQEACCEFLKRQLDPSNCLGIR [KLHL20] are 2.52 ± 0.24 and 2.67 ± 0.34.
As for AFARQAAQEPSAVPRAGPLTVNTE [FOXJ1], the protein stability index is 4.54 ± 0.17 under setting [1] and 4.49 ± 0.24 under setting [2].
For the sequence AFVLSSNSLKHCTELELFKATCRW [KLHL13], the protein stability index is, setting by setting: under setting [1], 2.38 ± 0.55; under setting [2], 2.23 ± 0.52.
In the case of AGAEPLPRNGDQWHEIRQGRLPRI [WEE1], the protein stability index reads like this: under setting [1], 3.86 ± 0.47; under setting [2], 4.24 ± 0.4.
In the same order, the values of AGEGLVRSANGFPYREDEEGAFGE [MAP2] are 5.27 ± 0.18 and 5.24 ± 0.38.
With AGFTGSGPIQLWQFLLELLSDKSC [ETS2], the protein stability index is, setting by setting: under setting [1], 2.27 ± 0.19; under setting [2], 2.12 ± 0.41.
In the same order, the values of AGVSLSTLEELLPPNTRVLRVLPN [PYCR3] are 2.79 ± 0.26 and 2.63 ± 0.23.
Take AHDNSEELERARELKEKEATLCLE [ANKRD44]: the protein stability index under setting [1] is 5.58 ± 0.21 and the protein stability index under setting [2] was found to be 5.45 ± 0.26.
The corresponding values for AHSSDVLENVFSSLTDDKYDVAMN [GOLPH3L] are 4.74 ± 0.21 and 4.7 ± 0.3.
The corresponding values for AIQQMGGQWLGGRQIRTNWATRKP [TIA1] are 2.8 ± 0.29 and 3.21 ± 0.44.
The corresponding values for AIQYALNIAFSEAEGARPLRENVP [MATN2] are 2.36 ± 0.21 and 2.08 ± 0.23.
AKAADSPTRNDLESGLGHFSLRVH: the protein stability index was 3.19 ± 0.38 under setting [1] and 3.42 ± 0.48 under setting [2].
Take AKLVPMGFTTATEFHQRRSEIIQI [RAD51]: the protein stability index is, setting by setting: under setting [1], 2.56 ± 0.6; under setting [2], 1.98 ± 0.12.
The sequence AKMGATKEEREDTPIQLQELLALE [TCAP] displayed a protein stability index under setting [1] of 5.28 ± 0.24 and a protein stability index under setting [2] of 5.15 ± 0.27.
As to AKYCGHLYGLGSGSSYVQNGTGNA [CNOT7], the protein stability index worked out at 2.8 ± 0.3 under setting [1] and 2.78 ± 0.28 under setting [2].
Consider ALEAAVHVQKLSQECLKQLAIKKQ [TRIM14], for which the protein stability index is, setting by setting: under setting [1], 3.91 ± 0.16; under setting [2], 3.54 ± 0.52.
In the same order, the values of ALNSMLRRRFREKKKAIQEEEERD [YJU2B] are 3.57 ± 0.12 and 3.59 ± 0.1.
Regarding AMEKFREDEGFLREEERPLPRRDF [KCNA3], the protein stability index reads like this: under setting [1], 4.74 ± 0.23; under setting [2], 4.74 ± 0.17.
Consider AMPMQDIKMILKMVQLDSIEDLEV [PRAME], for which the protein stability index stood at 2.25 ± 0.22 under setting [1] and 2.25 ± 0.59 under setting [2].
For APEAKDGSSFSGRVFRVTFLMLAV [APMAP], the protein stability index was 3.47 ± 0.77 under setting [1] and 2.77 ± 0.75 under setting [2].
The corresponding values for APIDWIEEYTTGMADCILVNSQFT [ALG2] are 2.64 ± 0.25 and 2.81 ± 0.49.
In the same order, the values of AQEQLRPQTPEPVEGRKHVDVQTE [RSPH3] are 5.41 ± 0.31 and 5.34 ± 0.24.
In the same order, the values of ARDTVQVELIPEKKGLFLKHVEYE [SNX8] are 3.65 ± 0.39 and 3.73 ± 0.26.
Turning to ARLKRSQSFGVASASSIKQILLEW [SMTNL2], the protein stability index runs as follows: under setting [1], 2.33 ± 0.28; under setting [2], 2.29 ± 0.17.
The corresponding values for ARRRQSAGPWPRPKGSLSMGPAPR [RASAL3] are 3.81 ± 0.25 and 4.03 ± 0.33.
For the sequence ARYTMPSSLLAPAKHLIASMLSKN [PLK2], the protein stability index was 2.51 ± 0.39 under setting [1] and 2.91 ± 0.72 under setting [2].
For the sequence ASASKFPSSGPVTPQPTALTFAKS [AUP1], the protein stability index was 4.33 ± 0.17 under setting [1] and 4.36 ± 0.38 under setting [2].
For the sequence ASGNATQTESGSEEVSSTVHIETF [C10orf62], the protein stability index is, setting by setting: under setting [1], 5.11 ± 0.21; under setting [2], 5.27 ± 0.2.
In the same order, the values of ASSLNGGNIKGIEGHSPGNLPKFC [ZC2HC1A] are 3.56 ± 0.078 and 4.02 ± 0.15.
On to AVATASRLGPYVLLEPEEGGRAYQ [TRIB3], for which the protein stability index is 3.79 ± 0.37 under setting [1] and 3.71 ± 0.32 under setting [2].
For the sequence AVDAGDPAVEACENRRKVLYQRAP [TCF25], the protein stability index is, setting by setting: under setting [1], 4.62 ± 0.21; under setting [2], 5.02 ± 0.22.
As for AVETEGSGSRHPPWARGCGMFTFL [SLC2A12], the protein stability index under setting [1] worked out at 2.11 ± 0.16 and the protein stability index under setting [2] came to 2.13 ± 0.28.
The corresponding values for AVQQVQRLPFLSSSNLSLDVLRGN [POMP] are 2.87 ± 0.24 and 2.98 ± 0.35.
As for AVYFAEADDPTSGFSSIPDAFWWA [KCNA3], the protein stability index came out at 2 ± 0.16 under setting [1] and 2.12 ± 0.24 under setting [2].
As to CCVDVKPISQEKIESERALISQCG [DUSP5], the protein stability index under setting [1] is 3.69 ± 0.26 and the protein stability index under setting [2] came to 3.63 ± 0.22.
For the sequence CEEEVFPLAMNYLDRFLSLEPVKK [CCND1], the protein stability index under setting [1] amounted to 3.36 ± 0.16 and the protein stability index under setting [2] stood at 3.3 ± 0.28.
With CEEVKMTVASEAKIQLSDSEAKSH [FAN1], the protein stability index runs as follows: under setting [1], 5.46 ± 0.17; under setting [2], 5.47 ± 0.074.
In the same order, the values of CEHECVNADGSYLCQCHEGFALNP [MATN2] are 4.77 ± 0.15 and 4.8 ± 0.4.
As for CENFPEMATYLRYVRRLDFFEKPD [CSNK1G3], the protein stability index by setting is: under setting [1], 2.21 ± 0.25; under setting [2], 2.59 ± 0.51.
As to CEQCGKCKCGECTAPRTLPSCLAC [SPRY1], the protein stability index was determined as 4.34 ± 0.2 under setting [1] and 4.56 ± 0.22 under setting [2].
Sequence CFKSVAKTPYDTSRRQEKSAGDAD [ELOA2] returned a protein stability index under setting [1] of 4.96 ± 0.3 and a protein stability index under setting [2] of 5 ± 0.46.
Sequence CGDGNTETHRAPDLVQWTRHMEAV [SOAT2] came in with a protein stability index under setting [1] of 3.55 ± 0.044 and a protein stability index under setting [2] of 3.48 ± 0.31.
In the case of CHFQALGCRTTHSNQEVLQSCLLV [PYCR3], the protein stability index reads like this: under setting [1], 2.8 ± 0.23; under setting [2], 2.67 ± 0.54.
Consider CITEDGRTVAVGDIVWGKIHGFPW [PWWP2B], for which the protein stability index stood at 2.49 ± 0.5 under setting [1] and 2.28 ± 0.45 under setting [2].
On to CQYEALVENNRRDVEAWFNTQTEE [KRT36], for which the protein stability index is, setting by setting: under setting [1], 2.86 ± 0.39; under setting [2], 2.83 ± 0.35.
The corresponding values for CRNCINLQNEAQKRESFLKYKCLL [IQUB] are 2.08 ± 0.44 and 2.22 ± 0.26.
As for CSFCKRAFPSGHLLDAHILEWHDS [ZNF511], the protein stability index is, setting by setting: under setting [1], 5.19 ± 0.093; under setting [2], 5.12 ± 0.24.
For CSQLLESSYFDSFQEAQIKRKARN [CDKL4], the protein stability index is, setting by setting: under setting [1], 3.51 ± 0.56; under setting [2], 3.528 ± 0.023.
Regarding CTLGDPNKLPEGVPQPARMPYISD [KLHL20], the protein stability index reads like this: under setting [1], 4.13 ± 0.24; under setting [2], 4.18 ± 0.15.
In the same order, the values of CTSSWDKNLKIWNVHTGEFRNCGA [WDR88] are 2.17 ± 0.42 and 2.56 ± 0.31.
Consider CVRRRYSDFEWLKNELERDSKIVV [SNX12], for which the protein stability index runs as follows: under setting [1], 2.7 ± 0.17; under setting [2], 2.62 ± 0.49.
Turning to DALEDSLEEVAVQQTGDDDEVDDF [PBXIP1], the protein stability index under setting [1] amounted to 5.59 ± 0.28 and the protein stability index under setting [2] was 5.67 ± 0.15.
DARQLFVLAGAAEEGFMTAELAGV [GNAI1]: the protein stability index is, setting by setting: under setting [1], 2.75 ± 0.37; under setting [2], 2.92 ± 0.31.
As for DCGLNLKQRGYFFLDERLYCESHA [PDLIM4], the protein stability index was 2.43 ± 0.17 under setting [1] and 2.3 ± 0.44 under setting [2].
Take DCGTIQENWVCLSCYQVYCGRYIN [HDAC6]: the protein stability index runs as follows: under setting [1], 2.85 ± 1.1; under setting [2], 2.39 ± 0.63.
As to DCLKKFNARRKLKGAILTTMLATR [CAMK2D], the protein stability index is, setting by setting: under setting [1], 3.04 ± 0.78; under setting [2], 3.49 ± 0.37.
On to DDCDDDDDDAQILPSPVQACSEDS [DRICH1], for which the protein stability index came to 5.48 ± 0.46 under setting [1] and 5.62 ± 0.24 under setting [2].
For the sequence DDKDALVFVLIDEVESLTAARNAC [TRIP13], the protein stability index turned out to be 2.21 ± 0.32 under setting [1] and 2.38 ± 0.34 under setting [2].
Regarding DDSVMKATQQARKRNFISSKSKQP [C22orf31], the protein stability index is, setting by setting: under setting [1], 4.87 ± 0.15; under setting [2], 4.98 ± 0.2.
DELALSLGYAASLEASVQDDAGTS [C2CD2L] registered a protein stability index under setting [1] of 5.34 ± 0.32 and a protein stability index under setting [2] of 5.22 ± 0.21.
For the sequence DERRQLQHLKSKALRERWLLEGTP [PALM], the protein stability index is, setting by setting: under setting [1], 3.54 ± 0.44; under setting [2], 3.71 ± 0.23.
